From patent US20260043041A1, “HSL PROTEIN, GENE, VECTOR, CELL, COMPOSITION AND USE THEREOF, AND METHOD FOR IMPROVING HERBICIDE RESISTANCE OF CROPS” (CENTRAL CHINA NORMAL UNIVERSITY, priority 2022, published 2026) come the findings set out here.

Data set [1] concerns Cc1c(C(=O)c2cnn(C)c2O)ccc(S(C)(=O)=O)c1C1=NOCC1. Briefly: Enzyme kinetic parameters with HPPD inhibitors as substrate (HPLC). Format: biochemical, rice. The settings on record: other: pH 7.0, 30° C., about 20 min. From the text:
(§1) High Performance Liquid Chromatography (HPLC) was used to test OsHIS1 wild-type protein (the amino acid sequence of OsHIS1 wild-type is shown as SEQ ID NO 2, and the corresponding nucleotide sequence is shown as SEQ ID NO 21), the enzyme kinetic parameters of OsHSL1 wild-type protein and some OsHSL1 mutant proteins with higher reactivity and HPPD inhibitors, and the specific results are shown in Table 9-Table 12. […] Each sample was replicated three times. • e.

For data set [2], the system named is CS(=O)(=O)c1ccc(C(=O)C2C(=O)CCCC2=O)c([N+](=O)[O-])c1. Described as above. Format: biochemical, rice. The settings on record: other: pH 7.0, 30° C., about 20 min.
Excerpt: as §1

Data set [3] has as its system Cc1ccccc1-n1c(=O)c2c(C)c(C(=O)C3=C(O)CCCC3=O)ccc2n(C)c1=O. The description is as above. Format: biochemical, rice. The settings on record: other: pH 7.0, 30° C., about 20 min.
Excerpt: as §1

For data set [4], the target named is T1, rice OsHSL1 (SEQ ID NO: 1) mutant OsHSL1_F140H/L204F/F298L/I335A (Oryza sativa, UniProt A0A7G1K9G4, F140H/F298L/I335A/L204F).
T1 construct: isolated enzyme, HPLC assay
Described as above. The data set is classed as biochemical. The settings on record: compared with OsHSL1 wild type; close to the OsHIS1 wild type.
Excerpt: as §1

Substrate in data set [5]: CS(=O)(=O)c1ccc(C(=O)C2C(=O)CCCC2=O)c([N+](=O)[O-])c1
The description is as above. The data set is classed as biochemical, rice. The settings on record: other: pH 7.0, 30° C., about 20 min.
Excerpt: as §1
This is another data set of the same source.

Substrate in data set [6]: Cc1ccccc1-n1c(=O)c2c(C)c(C(=O)C3=C(O)CCCC3=O)ccc2n(C)c1=O
The description is as above. The data set is classed as biochemical, rice. The settings on record: other: pH 7.0, 30° C., about 20 min.
Excerpt: as §1
The source holds these as a separate data set.

The nature of data set [7]: Catalytic activity of HSL proteins on HPPD inhibitors (HPLC, substrate consumption). The data set is classed as biochemical. The settings on record: 30° C., 10 h, protein 0.5 mg/mL; for Catalytic efficiency (%) Compound A: substrate Compound A 50 μM; for Catalytic efficiency (%) benzobicyclon technical: substrate benzobicyclon technical 50 μM; for Catalytic efficiency (%) Mesotrione: substrate mesotrione 50 μM; for Catalytic efficiency (%) methyl-benquitrione: substrate methyl-benquitrione 50 μM; for Catalytic efficiency (%) pyraquinate technical: substrate pyraquinate technical 50 μM; for Catalytic efficiency (%) tefuryltrione: substrate tefuryltrione 50 μM; for Catalytic efficiency (%) tembotrione: substrate tembotrione 50 μM. On the procedure: (§2) Each sample was replicated three times. • e.
(§3) Control: refers to the addition of inhibitors to the reaction system, but not the addition of enzymes, which is regarded as the substrate surplus when the inhibitor is not catalyzed.
(§4) Sample: in the enzyme reaction system, the same volume and the same concentration (50 μM) of the inhibitor was added, and the catalytic efficiency of the enzyme to the inhibitor was observed.
(§5) Catalytic efficiency=(1−(peak area of substrate in sample)/(peak area of substrate in control))×100%.

The format of data set [8] is biochemical. The settings on record: for Catalytic efficiency (%) topramezone: substrate topramezone 50 μM, 30° C., 10 h, protein 0.5 mg/mL. The protocol:
as §2, §3, §4, §5

Data set [9] in a line: Enzyme kinetic parameter study (HPLC, Michaelis-Menten fit). Format: biochemical. The settings on record: statement on Table 12.
Excerpt: as §1

T1 sequence (A0A7G1K9G4 entry or part of it F140H/L204F/F298L/I335A): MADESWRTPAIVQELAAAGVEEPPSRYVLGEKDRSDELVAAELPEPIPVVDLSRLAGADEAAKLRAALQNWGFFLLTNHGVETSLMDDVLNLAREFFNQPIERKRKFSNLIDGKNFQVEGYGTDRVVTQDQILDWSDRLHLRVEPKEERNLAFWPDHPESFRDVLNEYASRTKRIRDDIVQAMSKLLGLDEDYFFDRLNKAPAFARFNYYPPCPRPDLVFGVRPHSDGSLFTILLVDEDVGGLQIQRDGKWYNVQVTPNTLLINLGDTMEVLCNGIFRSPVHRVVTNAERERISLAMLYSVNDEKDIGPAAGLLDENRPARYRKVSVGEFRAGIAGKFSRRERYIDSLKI

For “rice OsHSL1 (SEQ ID NO: 1) mutant OsHSL1_I335F (Oryza sativa Japonica Group; I335F)”, in data set [1], the Km (commonly the substrate concentration at which the rate is half of its maximum) was 48.4211 µM; the kcat (in general, the number of substrate molecules converted per active site and unit of time at saturation) was 0.0057 s⁻¹.

For the molecule “rice OsHSL1 (SEQ ID NO: 1) mutant OsHSL1_F140H/L204F/F298L/I335A (Oryza sativa Japonica Group; F140H/F298L/I335A/L204F)”, in data set [2], the Km was found to be 23.4659 µM and the kcat was 0.0083 s⁻¹. In data set [3], the Michaelis-Menten constant (Km) was 22.6001 µM and the kcat stood at 0.0106 s⁻¹.

With `CS(=O)(=O)c1ccc(C(=O)C2C(=O)CCCC2=O)c([N+](=O)[O-])c1` [mesotrione], the “affinity and catalytic efficiency (in words)” value in data set [4] was “better affinity and catalytic efficiency”.

For `CS(=O)(=O)c1ccc(C(=O)C2=C(Sc3ccccc3)C3CCC(C3)C2=O)c(Cl)c1` (stereo not drawn) [benzobicyclon technical, benzobicyclon], the “affinity and catalytic efficiency (in words)” value in [4] is “better affinity and catalytic efficiency”.

Regarding “rice OsHSL1 wild type, SEQ ID NO: 1 (Oryza sativa Japonica Group)”, in data set [1], the Km came out at 44.0732 µM and the turnover number (kcat) is 0.0011 s⁻¹.

B1: rice OsHIS1 wild type, SEQ ID NO: 2 (Oryza sativa Japonica Group) (protein)
chain: MADESWRAPAIVQELAAAGVEEPPSRYLLREKDRSDVKLVAAELPEPLPVVDLSRLDGAEEATKLRVALQNWGFFLLTNHGVEASLMDSVMNLSREFFNQPIERKQKFSNLIDGKNFQIQGYGTDRVVTQDQILDWSDRLHLRVEPKEEQDLAFWPDHPESFRDVLNKYASGTKRIRDDIIQAMAKLLELDEDYFLDRLNEAPAFARFNYYPPCPRPDLVFGIRPHSDGTLLTILLVDKDVSGLQVQRDGKWSNVEATPHTLLINLGDTMEVMCNGIFRSPVHRVVTNAEKERISLAMLYSVNDEKDIEPAAGLLDENRPARYRKVSVEEFRAGIFGKFSRGERYIDSLRI
notes: isolated enzyme, HPLC substrate-consumption assay with Fe(II), ascorbate and 2-oxoglutarate
Turning to B1, in data set [5], the Michaelis-Menten constant (Km) was 5.5811 µM and the catalytic constant (kcat) stood at 0.05957 s⁻¹. In data set [6], the Km was 16.2456 µM and the catalytic constant (kcat) came out at 0.0106 s⁻¹.

B2: rice OsHSL1 wild type, SEQ ID NO: 1 (Oryza sativa Japonica Group) (protein)
chain: MADESWRTPAIVQELAAAGVEEPPSRYVLGEKDRSDELVAAELPEPIPVVDLSRLAGADEAAKLRAALQNWGFFLLTNHGVETSLMDDVLNLAREFFNQPIERKRKFSNLIDGKNFQVEGYGTDRVVTQDQILDWSDRLFLRVEPKEERNLAFWPDHPESFRDVLNEYASRTKRIRDDIVQAMSKLLGLDEDYFFDRLNKAPALARFNYYPPCPRPDLVFGVRPHSDGSLFTILLVDEDVGGLQIQRDGKWYNVQVTPNTLLINLGDTMEVLCNGIFRSPVHRVVTNAERERISLAMFYSVNDEKDIGPAAGLLDENRPARYRKVSVGEFRAGIIGKFSRRERYIDSLKI
notes: as for B1
Turning to B2, in data set [7], the “Catalytic efficiency (%) Compound A” value is listed as 0%, the “Catalytic efficiency (%) benzobicyclon technical” value is 46%, the “Catalytic efficiency (%) Mesotrione” value amounted to 40% and the “Catalytic efficiency (%) methyl-benquitrione” value amounted to 0%. In addition, in data set [7], the “Catalytic efficiency (%) pyraquinate technical” value is listed as 17%, the “Catalytic efficiency (%) tefuryltrione” value stood at 100% and the “Catalytic efficiency (%) tembotrione” value was 89%. Also, the “Catalytic efficiency (%) topramezone” value in [8] is reported as 100%. For the same molecule, the “Catalytic efficiency (%) 30 min” value in data set [8] (topramezone degradation, reaction time 30 min) is recorded as 79%. For the same molecule, the “Catalytic efficiency (%) 60 min” value in [8] (topramezone degradation, reaction time 60 min) is recorded as 86%. For the same molecule, in data set [8] (topramezone degradation, reaction time 120 min), the “Catalytic efficiency (%) 120 min” value is on record as 93%. Moreover, the “Catalytic efficiency (%) 300 min” value in data set [8] (topramezone degradation, reaction time 300 min) amounted to 98%. The “Catalytic efficiency (%) 600 min” value in [8] (topramezone degradation, reaction time 600 min) came to 100%. Besides, in data set [5], the Km came to 27.6770 µM and the turnover number (kcat) amounted to 0.0002 s⁻¹.

B3: OsHSL1_L204F/F298L/I335F: SEQ ID NO.1 with L204 to phenylalanine, F298 to leucine, I335 to phenylalanine (protein, listed as Oryza sativa)
chain: MADESWRTPAIVQELAAAGVEEPPSRYVLGEKDRSDELVAAELPEPIPVVDLSRLAGADEAAKLRAALQNWGFFLLTNHGVETSLMDDVLNLAREFFNQPIERKRKFSNLIDGKNFQVEGYGTDRVVTQDQILDWSDRLFLRVEPKEERNLAFWPDHPESFRDVLNEYASRTKRIRDDIVQAMSKLLGLDEDYFFDRLNKAPAFARFNYYPPCPRPDLVFGVRPHSDGSLFTILLVDEDVGGLQIQRDGKWYNVQVTPNTLLINLGDTMEVLCNGIFRSPVHRVVTNAERERISLAMLYSVNDEKDIGPAAGLLDENRPARYRKVSVGEFRAGIFGKFSRRERYIDSLKI
B3: in data set [7], the “Catalytic efficiency (%) Compound A” value was found to be 47%, the “Catalytic efficiency (%) benzobicyclon technical” value is listed as 100%, the “Catalytic efficiency (%) Mesotrione” value is 56% and the “Catalytic efficiency (%) methyl-benquitrione” value came out at 35%. Also, in data set [7], the “Catalytic efficiency (%) pyraquinate technical” value came out at 52%, the “Catalytic efficiency (%) tefuryltrione” value is given as 94% and the “Catalytic efficiency (%) tembotrione” value was found to be 0%. Further, the “Catalytic efficiency (%) topramezone” value in data set [8] worked out at 1%.

B4: OsHSL1_F140H/L204F/I335F: SEQ ID NO.1 with F140 to histidine, L204 to phenylalanine, I335 to phenylalanine (protein)
chain: MADESWRTPAIVQELAAAGVEEPPSRYVLGEKDRSDELVAAELPEPIPVVDLSRLAGADEAAKLRAALQNWGFFLLTNHGVETSLMDDVLNLAREFFNQPIERKRKFSNLIDGKNFQVEGYGTDRVVTQDQILDWSDRLHLRVEPKEERNLAFWPDHPESFRDVLNEYASRTKRIRDDIVQAMSKLLGLDEDYFFDRLNKAPAFARFNYYPPCPRPDLVFGVRPHSDGSLFTILLVDEDVGGLQIQRDGKWYNVQVTPNTLLINLGDTMEVLCNGIFRSPVHRVVTNAERERISLAMFYSVNDEKDIGPAAGLLDENRPARYRKVSVGEFRAGIFGKFSRRERYIDSLKI
For B4, in data set [7], the “Catalytic efficiency (%) Compound A” value is 35%, the “Catalytic efficiency (%) benzobicyclon technical” value is given as 100%, the “Catalytic efficiency (%) Mesotrione” value is reported as 89% and the “Catalytic efficiency (%) methyl-benquitrione” value came out at 23%. For the same molecule, in data set [7], the “Catalytic efficiency (%) pyraquinate technical” value stood at 2%, the “Catalytic efficiency (%) tefuryltrione” value is listed as 100% and the “Catalytic efficiency (%) tembotrione” value is 36%. For the same molecule, in data set [8], the “Catalytic efficiency (%) topramezone” value came out at 40%.

B5: OsHSL1_F140H/L204F/F298L/I335W: SEQ ID NO.1 with F140 to histidine, L204 to phenylalanine, F298 to leucine, I335 to tryptophan (protein)
chain: MADESWRTPAIVQELAAAGVEEPPSRYVLGEKDRSDELVAAELPEPIPVVDLSRLAGADEAAKLRAALQNWGFFLLTNHGVETSLMDDVLNLAREFFNQPIERKRKFSNLIDGKNFQVEGYGTDRVVTQDQILDWSDRLHLRVEPKEERNLAFWPDHPESFRDVLNEYASRTKRIRDDIVQAMSKLLGLDEDYFFDRLNKAPAFARFNYYPPCPRPDLVFGVRPHSDGSLFTILLVDEDVGGLQIQRDGKWYNVQVTPNTLLINLGDTMEVLCNGIFRSPVHRVVTNAERERISLAMLYSVNDEKDIGPAAGLLDENRPARYRKVSVGEFRAGIWGKFSRRERYIDSLKI
In the case of B5, in data set [7], the “Catalytic efficiency (%) Compound A” value is reported as 98%, the “Catalytic efficiency (%) benzobicyclon technical” value amounted to 100%, the “Catalytic efficiency (%) Mesotrione” value came to 88% and the “Catalytic efficiency (%) methyl-benquitrione” value stood at 90%. Further, in data set [7], the “Catalytic efficiency (%) pyraquinate technical” value came to 17%, the “Catalytic efficiency (%) tefuryltrione” value is given as 70% and the “Catalytic efficiency (%) tembotrione” value is 55%. The “Catalytic efficiency (%) topramezone” value in data set [8] is 0%.

B6: OsHSL1_L204F/F298L/I335A: three-point mutant OsHSL1_L204F/F298L/I335A containing I335; not listed in Table 2 (protein)
chain: MADESWRTPAIVQELAAAGVEEPPSRYVLGEKDRSDELVAAELPEPIPVVDLSRLAGADEAAKLRAALQNWGFFLLTNHGVETSLMDDVLNLAREFFNQPIERKRKFSNLIDGKNFQVEGYGTDRVVTQDQILDWSDRLFLRVEPKEERNLAFWPDHPESFRDVLNEYASRTKRIRDDIVQAMSKLLGLDEDYFFDRLNKAPAFARFNYYPPCPRPDLVFGVRPHSDGSLFTILLVDEDVGGLQIQRDGKWYNVQVTPNTLLINLGDTMEVLCNGIFRSPVHRVVTNAERERISLAMLYSVNDEKDIGPAAGLLDENRPARYRKVSVGEFRAGIAGKFSRRERYIDSLKI
Consider B6, for which the “affinity and catalytic efficiency to pyraquinate technical versus wild types (in words)” value in [9] is “superior to that of OsHIS1 wild type and OsHSL1 wild type”.
